The text below walks through data of PMC4015309, “Interaction of translationally controlled tumor protein with Apaf-1 is involved in the development of chemoresistance in HeLa cells” (BMC Cancer, 2014).

To fix the notation:
B2: TCTP-GST (GST-tagged recombinant TCTP) (natural protein, human, UniProt P13693 1-172, looked up)
chain: MIIYRDLISHDEMFSDIYKIREIADGLCLEVEGKMVSRTEGNIDDSLIGGNASAEGPEGEGTESTVITGVDIVMNHHLQETSFTKEAYKKYIKDYMKSIKGKLEEQRPERVKPFMTGAAEQIKHILANFKNYQFFIGENMNPDGMVALLDYREDGVTPYMIFFKDGLEMEKC
notes: translationally controlled tumor protein (TCTP); also called GST-tagged TCTP; TCTP-GST protein; source: E. coli, purified (GST fusion protein purification kit)

What all share (assay): pull-down; His-tagged Apaf-1 variants or WDR immobilised on Handee spin column, incubated with TCTP-GST; eluates separated by SDS-PAGE and silver stained
Common to all, as to conditions: both partners purified

For assay [1], the target named is B2.
Assay [2] addresses T1, APAF-420 (Apaf-1 residues 1-420), His-tagged (UniProt O14727-3 1-420).
T1 construct: Apaf-1 residues 1-420; source: E. coli BL21(DE3)pLysS, purified (Ni Sepharose beads); not shown: His tag, C-terminal, kept
T1 sequence (looked up): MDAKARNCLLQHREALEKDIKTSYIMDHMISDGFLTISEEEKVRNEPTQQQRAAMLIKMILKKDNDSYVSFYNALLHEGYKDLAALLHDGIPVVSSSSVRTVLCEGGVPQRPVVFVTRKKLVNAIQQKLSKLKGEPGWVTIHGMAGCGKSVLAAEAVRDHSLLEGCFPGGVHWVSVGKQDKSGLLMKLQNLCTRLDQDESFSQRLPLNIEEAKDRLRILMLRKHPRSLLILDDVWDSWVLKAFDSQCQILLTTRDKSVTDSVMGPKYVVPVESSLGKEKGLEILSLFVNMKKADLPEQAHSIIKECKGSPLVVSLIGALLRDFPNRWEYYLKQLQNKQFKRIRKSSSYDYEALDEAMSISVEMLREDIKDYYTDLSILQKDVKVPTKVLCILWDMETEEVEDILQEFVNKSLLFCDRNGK

Assay [3] addresses T2, Full APAF-1 (residues 1-1194), His-tagged (UniProt O14727-3 1-1194).
T2 construct: Apaf-1, full length, printed length 1194 residues (residues 1-1194): CARD 1-97, CED-4 98-412, WD-40 repeats 413-1194; also called full-length Apaf-1; His-Apaf-1; source: E. coli BL21(DE3)pLysS, purified (Ni Sepharose beads); not shown: His tag, C-terminal, kept
T2 sequence (looked up): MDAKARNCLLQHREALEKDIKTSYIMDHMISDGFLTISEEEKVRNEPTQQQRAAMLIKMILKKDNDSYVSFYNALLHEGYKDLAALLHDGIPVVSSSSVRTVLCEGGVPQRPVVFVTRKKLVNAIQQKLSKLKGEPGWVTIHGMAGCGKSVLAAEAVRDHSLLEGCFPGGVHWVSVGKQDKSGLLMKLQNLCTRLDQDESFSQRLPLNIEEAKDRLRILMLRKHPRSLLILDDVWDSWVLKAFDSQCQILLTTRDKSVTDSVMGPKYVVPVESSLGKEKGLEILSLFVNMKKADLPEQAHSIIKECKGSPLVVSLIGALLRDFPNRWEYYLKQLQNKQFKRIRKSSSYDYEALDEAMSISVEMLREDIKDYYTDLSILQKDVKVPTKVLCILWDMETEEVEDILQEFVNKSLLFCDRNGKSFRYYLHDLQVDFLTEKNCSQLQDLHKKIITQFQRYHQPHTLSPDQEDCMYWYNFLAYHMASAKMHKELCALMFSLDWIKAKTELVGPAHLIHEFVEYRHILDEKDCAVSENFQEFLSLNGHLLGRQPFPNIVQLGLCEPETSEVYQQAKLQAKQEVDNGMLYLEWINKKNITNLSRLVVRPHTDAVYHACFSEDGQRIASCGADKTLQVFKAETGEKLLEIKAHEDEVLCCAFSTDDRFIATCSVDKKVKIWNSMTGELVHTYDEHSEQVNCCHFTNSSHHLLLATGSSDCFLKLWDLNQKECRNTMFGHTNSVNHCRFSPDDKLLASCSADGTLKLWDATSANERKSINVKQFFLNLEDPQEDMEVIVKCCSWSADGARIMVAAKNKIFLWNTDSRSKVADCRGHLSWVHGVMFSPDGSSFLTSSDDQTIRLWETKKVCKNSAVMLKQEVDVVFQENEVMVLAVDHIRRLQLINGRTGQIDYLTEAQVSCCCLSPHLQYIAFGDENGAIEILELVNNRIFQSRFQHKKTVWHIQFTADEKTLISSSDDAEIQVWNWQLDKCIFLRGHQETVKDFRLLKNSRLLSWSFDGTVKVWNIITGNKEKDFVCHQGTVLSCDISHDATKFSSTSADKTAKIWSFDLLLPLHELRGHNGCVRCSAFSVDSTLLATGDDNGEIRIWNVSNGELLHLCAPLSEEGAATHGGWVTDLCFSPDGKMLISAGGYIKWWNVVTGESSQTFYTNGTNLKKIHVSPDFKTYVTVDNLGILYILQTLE

Assay [4] deals with T3, APAF-530 (Apaf-1 residues 1-530), His-tagged (UniProt O14727-3 1-530).
T3 construct: Apaf-1 residues 1-530; source: E. coli BL21(DE3)pLysS, purified (Ni Sepharose beads); not shown: His tag, C-terminal, kept
T3 sequence (looked up): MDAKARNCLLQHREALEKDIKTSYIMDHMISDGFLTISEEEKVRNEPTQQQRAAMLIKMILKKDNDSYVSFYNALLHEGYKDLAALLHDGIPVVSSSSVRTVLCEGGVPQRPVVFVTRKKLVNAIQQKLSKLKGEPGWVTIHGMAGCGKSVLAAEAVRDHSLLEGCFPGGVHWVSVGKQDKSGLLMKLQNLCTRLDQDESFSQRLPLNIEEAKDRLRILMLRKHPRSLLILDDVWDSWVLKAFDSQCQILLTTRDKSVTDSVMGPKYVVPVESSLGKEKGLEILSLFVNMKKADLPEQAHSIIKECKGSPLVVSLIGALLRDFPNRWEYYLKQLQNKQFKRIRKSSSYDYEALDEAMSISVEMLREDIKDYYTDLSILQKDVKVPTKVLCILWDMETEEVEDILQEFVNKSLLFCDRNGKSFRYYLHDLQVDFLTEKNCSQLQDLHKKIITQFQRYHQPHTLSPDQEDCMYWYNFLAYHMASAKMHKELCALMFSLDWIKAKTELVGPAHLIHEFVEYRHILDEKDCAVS

B1: APAF-97 (Apaf-1 residues 1-97, CARD), His-tagged (domain or fragment, UniProt O14727 1-97, looked up)
chain: MDAKARNCLLQHREALEKDIKTSYIMDHMISDGFLTISEEEKVRNEPTQQQRAAMLIKMILKKDNDSYVSFYNALLHEGYKDLAALLHDGIPVVSSS
notes: Apaf-1 residues 1-97 (caspase recruitment domain, CARD); also called APF-97; CARD of Apaf-1; source: E. coli BL21(DE3)pLysS, purified (Ni Sepharose beads); not shown: His tag, C-terminal, kept
As for B1, the binding result in assay [1] is given as “binds”.

For the molecule B2, the binding result in assay [2], in assay [3] and in assay [4] was “binds” each time.
